Data on 40 sequences can be found in the nanobody polyreactivity screen of Harvey et al. (2022).

This data set can be described thus: yeast display, Sf9 membrane polyspecificity reagent, FACS + sequencing; frameworks hold sequencing errors. In short, it runs like this:
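A synthetic nanobody library was expressed on Saccharomyces cerevisiae BJ5465 by galactose induction for 36–48 hours. The library was stained for 1 hour at 4 °C with 10% biotinylated, detergent-solubilized Sf9 membrane reagent and enriched with streptavidin microbeads before FACS. Low and high (top ~1%) gates were set on anti-HA fluorescence for expression and streptavidin fluorescence for reagent binding, and each polyreactivity label reflects the gate of origin.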
With “QVQLVESGGGLVQAGGSLRLSCAASGSTFPAYAMGWYRQAPGKERELVATITYTGGSTYYADSVKGRFTISRDNAKNTVYLQMNSLKPEDTAVYYCAADRWDQEDEFDYWGQGTQVTVSS”, the “polyreactivity (PSR sort gate)” value is recorded as “low polyreactivity”. “QVQLVESGGGLVQAGGSLRLSCAASGSTFPEYAMGWYRQAPGKERELVAAISKRGGRTYYADSVKGRFTISRDNAKNTVYLQMNSLKPEETAVYYCARDSYPHGRARFDYWGQGTQVTVSS”: the “polyreactivity (PSR sort gate)” value is listed as “high polyreactivity”.

In the case of “QVQLVESGGGLVQAGGSLRLSCAASGSTFPFYAMGWYRQAPGKERELVAAITSGGSTYADSVKGRFTISRDNAKNTVYLQMNSLNPEDTAVYYCAASWPRWWRFGYWGQGTQVTVSS”, the “polyreactivity (PSR sort gate)” value is on record as “low polyreactivity”.

Consider “QVQLVESGGGLVQAGGSLRLSCAASGSTFPGNAMGWYRQAPGKERELVAAITSSGGSTDYADSVKGRFTISRDNAKNTVYLQMNSLKPEDTAVYYCNAKDAEHYERFNYWGQGTQVTVSS”, for which the “polyreactivity (PSR sort gate)” value is recorded as “low polyreactivity”.

“QVQLVESGGGLVQAGGSLRLSCAASGSTFPGNAMGWYRQAPGKERELVASISGGGDSTYYADSVKGRFTISRDYAKNTVYLQMNSLKPEDTAVYYCAADYRQEPGYTGYYYWGQGTQVTVSS”: the “polyreactivity (PSR sort gate)” value was “low polyreactivity”.

With “QVQLVESGGGLVQAGGSLRLSCAASGSTFPGNARGWSRQAPGKLRELVAAIRWSGGRTYYADSVKGRFTISRDNAKNTVYLQMNSLNPEDTAVSYCNAVSDRPIPWYYYWGQGTQVTASS”, the “polyreactivity (PSR sort gate)” value is “low polyreactivity”. On to “QVQLVESGGGLVQAGGSLRLSCAASGSTFPGYAMGWYRQAPGKERELVASIYTGGSTYYADSVKGRFTISRDNAKNTVYLQMNSLKPEDTAVYYCAADSYNVSSLLYYWGQGTQVTVSS”, for which the “polyreactivity (PSR sort gate)” value is “low polyreactivity”.

On to “QVQLVESGGGLVQAGGSLRLSCAASGSTFPHYVMGWYRQAPGKERELVAGISWSGGSTYYADSVKGRFTISRDNAKNTVYLQMNSLKPEDTAVYYCAKVLTWRGYRYNYWGQGTQVTVSS”, for which the “polyreactivity (PSR sort gate)” value is “low polyreactivity”. Then “QVQLVESGGGLVQAGGSLRLSCAASGSTFPLNAMGWYRQAPGKERELVASINFGGGTTYYADSVKGRFTISRDNAKNTVYLQMNSLKPEDTAVYYCAADVYRGTYRRDYWGQGTQVTVSS”, with “high polyreactivity”; and “QVQLVESGGGLVQAGGSLRLSCAASGSTFPLYAMGLYRQAPGKERELVAAITGGGGRTYYADSVKGRFTISRDIAKNTVYLQMNSLKPEYTAVYYCNAVVYLTNYWYDYWAQGTQVTVSS”, with “low polyreactivity”. For “QVQLVESGGGLVQAGGSLRLSCAASGSTFPLYAMGWYRQAPGKERELVAAITWSGANTYYADSVKGRFTISRDNAKNTVYLQMNSLKPEDTAVYYCAALYYWDQPQLEFSYWGQGTQVTVSS”, the “polyreactivity (PSR sort gate)” value is reported as “low polyreactivity”. Then “QVQLVESGGGLVQAGGSLRLSCAASGSTFPLYAMGWYRQAPGKERELVATISWGDGSTYYADSVKGRFTISRDTAKNTVYLQMNSLNPEETAVYYCAEDEYPDATTDATDKYYYWGQGTQVTVST”, with “low polyreactivity”; and “QVQLVESGGGLVQAGGSLRLSCAASGSTFPPNAMGWYRQAPGKEGELVADSSDSSTYYADSVKGRFTISRDNAKNTVYLQMNSLKPEDTAVYYCAAADAGLSSKSYGQQYDYWGQGTQVTVSS”, with “low polyreactivity”. In the case of “QVQLVESGGGLVQAGGSLRLSCAASGSTFPPNAMGWYRQAPGKERELVAAISERGGSTYYADSVKGRFTISRDNAKNTVYLLMNSLKPEDTAVYYCAVDYYYLMYWGQGTQVTVSS”, the “polyreactivity (PSR sort gate)” value is “low polyreactivity”. On to “QVQLVESGGGLVQAGGSLRLSCAASGSTFPPNAMGWYRQARGKARELVAVISYSDGSTYYADSVNGRFTISRDNAKNTVYLQMNSLKPEDTAVYYCAAYSGYAGVSMYYWGQGTQVTVSS”, for which the “polyreactivity (PSR sort gate)” value is “low polyreactivity”. As to “QVQLVESGGGLVQAGGSLRLSCAASGSTFPPYAMGWYRPAPGKGRELVAAISYRDTGTYYADSVKGRFTISRDNAKNTVYLQMNSLKPEDTAVYYCAADYLIVYYFLYYYWGQGTPVTVSS”, the “polyreactivity (PSR sort gate)” value is on record as “low polyreactivity”.

For the sequence “QVQLVESGGGLVQAGGSLRLSCAASGSTFPPYAMGWYRQAPGKERDLVADITRRGASTYYADSVKGRFTISRDNAKNTVYLQMNSLKPEDTAVYYCAARYYYQYYSGFDYWGQGTQVTVSS”, the “polyreactivity (PSR sort gate)” value is on record as “high polyreactivity”.

With “QVQLVESGGGLVQAGGSLRLSCAASGSTFPRNAMGWYRQAPGKERELVAAISYSGGRTYYADSVKGRFTISRDNAKNTVYLQMNSLKPEDTAVYYCAAQPYSLVRGKSYGYWGQGTQVTVSS”, the “polyreactivity (PSR sort gate)” value is given as “high polyreactivity”.

Take “QVQLVESGGGLVQAGGSLRLSCAASGSTFPRNAMGWYRQAPGKERELVATITSSAGGTYYADSVKGRFTISRDNAKNTVYLQMNSLKPEDTAVYYCNADKNGFWYTYFGRERDYWGQGTQVTVSS”: the “polyreactivity (PSR sort gate)” value is listed as “low polyreactivity”. For the sequence “QVQLVESGGGLVQAGGSLRLSCAASGSTFPSNAMGRYRQAPGKERELVAVISTSGVRTYYADSVKGRFTISRDNAKNTVYLQMNSLKPEDTAVYYCAARTRSYGGNGYRYPFDYWGQGTQVTVSS”, the “polyreactivity (PSR sort gate)” value was “high polyreactivity”. Then “QVQLVESGGGLVQAGGSLRLSCAASGSTFPSYAMGCYRQAPAKERELVAAINSGGGTNYADSVKGRFTISRDNAKNTVYLQMNSLKPEDTAVYYCAKSRYDYTKTEGGYWGQGTQVTVSS”, with “low polyreactivity”; and “QVQLVESGGGLVQAGGSLRLSCAASGSTFPSYAMGWYRPAPGKERELVAAINSGGGTNYADSVKGRFTISRDNAKNTVYLQMNSLKPEDTAVYYCAKSRYDYTKTEGGYWGQGTQVTVSS”, with “low polyreactivity”. In the case of “QVQLVESGGGLVQAGGSLRLSCAASGSTFPTKAMGWYRQAPGKERELVATITTRRSTYYADSVKGRFTISRDNAKNTVYLQMNSLKPEDTAVYYCNAEYVYLIFSVYLYDYDYWGQGTQVTVSS”, the “polyreactivity (PSR sort gate)” value was “low polyreactivity”. On to “QVQLVESGGGLVQAGGSLRLSCAASGSTFPTNAMGWYRPAPGKERELVATFTTGGSTYYADSVKGRFTISRDNAKNTVYLQMNSLKPVDTAVYYCNAEYVYLIFSVYLYDYDYWGQVTQVTVSS”, for which the “polyreactivity (PSR sort gate)” value is reported as “low polyreactivity”. For “QVQLVESGGGLVQAGGSLRLSCAASGSTFPTNAMGWYRQAPGKEREFVADITIRGGGTAYADSVKGRFTISRDNAKNTVYLQMTSLKPEDTAVYYCARSKSTELKRLLYDSWGQGTQVTVST”, the “polyreactivity (PSR sort gate)” value was “low polyreactivity”.

As to “QVQLVESGGGLVQAGGSLRLSCAASGSTFPTNAMGWYRQAPGKERELDAGITEGGSSTYYADSVKGRFTISRDYAKNTVYLQMNSLKPEDTAVYYCAADVLWYGPFWVRQDDYWGQGTQLTVSS”, the “polyreactivity (PSR sort gate)” value is listed as “high polyreactivity”. Take “QVQLVESGGGLVQAGGSLRLSCAASGSTFPTNAMGWYRQAPGKERELVAAISQRGDSTSYADSVKGRFTISRDNAKNTVYLQMNSLKPEDTAVYFCAVDAYSYYDSTWFWYDYWGQGTQVTVSS”: the “polyreactivity (PSR sort gate)” value is listed as “high polyreactivity”. On to “QVQLVESGGGLVQAGGSLRLSCAASGSTFPTYAMGWYRQAPGKERELVAAITRGGSTYYADSVKGRFTISRDNAKNTVYLQMHSRKPEDTSVYYCAVYEFLGQIGKRDYWGQGTQVTVSS”, for which the “polyreactivity (PSR sort gate)” value is “low polyreactivity”.

Regarding “QVQLVESGGGLVQAGGSLRLSCAASGSTFPTYVMGWYRQAPGKERELVASINSDTGTYYADSVKGRFTISRDNAQNTVYLQMNSLKPEDTAVYYCNARQAYYFYPFEYDYWGQGTQVTVSS”, the “polyreactivity (PSR sort gate)” value is given as “low polyreactivity”. Take “QVQLVESGGGLVQAGGSLRLSCAASGSTFPVYAMGWYRQAPGKERELVASISSGADTNYADSVKGRFTISRDNAKNTVYLQMNSLKPEDTAVYYCAATVPLRTIRPRSYGYWGQGTQVTVSS”: the “polyreactivity (PSR sort gate)” value is recorded as “low polyreactivity”.

Consider “QVQLVESGGGLVQAGGSLRLSCAASGSTFPWNAMGWYRQAPGKERELVAAINYGNGSTYYADSVKGRFTISRDNAKNTVYLQMNSLKPEDTAVYYCNADYTGTRTDSVTPEYEYWGQGTQVTVSS”, for which the “polyreactivity (PSR sort gate)” value is “low polyreactivity”. Then “QVQLVESGGGLVQAGGSLRLSCAASGSTFPYNAMGWYRQAPGKERELVAAITGRGGSTYYADSVKGRFTISRDNAKNTVYLQMNSLKPEDTAVYYCGADFWYSYYYWGQGTQVTVSS”, with “high polyreactivity”. Take “QVQLVESGGGLVQAGGSLRLSCAASGSTFPYYAMGWYRQAPGKERELVAAISRGDSTNYADSVKGRFTISRDNAKNTFYLQMNSLKTEDTAVYYCAARLQYRRTSVKYYYWGQGTQVTVSS”: the “polyreactivity (PSR sort gate)” value is recorded as “high polyreactivity”. Consider “QVQLVESGGGLVQAGGSLRLSCAASGSTFPYYAMGWYRQAPGKERELVAAISWRGTRTYYADSVKGRFTISRDNAKNTVYLQMNSLKPEDTAVYYCNAYHTPEYQEGGYYWGQGTQVTVSS”, for which the “polyreactivity (PSR sort gate)” value is given as “high polyreactivity”.

As for “QVQLVESGGGLVQAGGSLRLSCAASGSTFPYYAMGWYRQAPGKERELVASIRKRGGGTYYADSVKGRFTISRDNAKNTVYLQMNSLKPEDTAVYYCAVRVYQFRYTGYDYWGQGTQVTVSS”, the “polyreactivity (PSR sort gate)” value is “high polyreactivity”.

For the sequence “QVQLVESGGGLVQAGGSLRLSCAASGSTFPYYDMGWYRQAPGKERELVAAISWSGDSTYYADSVKGRFTISRDNAKNTVYLQMNRLKPEDTAVYYCAAYSDYWSYLSTDDYWGQGTQVTVSS”, the “polyreactivity (PSR sort gate)” value is recorded as “low polyreactivity”.

As to “QVQLVESGGGLVQAGGSLRLSCAASGSTFPYYVMGRYRQAPGKERELVAAITRSTGTTYYADSVKGRFTISRDNAKNTVYLQMNSLKPEDTAVYYCAARSSSSPRWYGGDYWGQGTQVTVSS”, the “polyreactivity (PSR sort gate)” value was “low polyreactivity”. For the sequence “QVQLVESGGGLVQAGGSLRLSCAASGSTFQAKAMGWYRQAPGKERELVAAISWRGSSTYYADSVKGRFTISRDNAKNTVYLQMNSLKPEDPAVYYCAAASSGSYYRYEYWGQGTQVTVSS”, the “polyreactivity (PSR sort gate)” value was “high polyreactivity”. With “QVQLVESGGGLVQAGGSLRLSCAASGSTFQANAMGWYRQAPGKERELVAAISSRGGITYYADSVKGRFTISRDNAKNTVYLQMNSLKPEYTAVYYSNALPRCTYRQGLGVRLYYWGQGTQVTVSS”, the “polyreactivity (PSR sort gate)” value is “high polyreactivity”.

On to “QVQLVESGGGLVQAGGSLRLSCAASGSTFQFYAMGWYRQAPGKEREFVAAITTRSGSTYYADSVKGRFTISRDTAKNTVYLQMNSQKPEDTAVYYCAAYIYGHSSDSVRYEYWGQGTQVTVSS”, for which the “polyreactivity (PSR sort gate)” value is given as “low polyreactivity”.
